# The supplement of paper PMC9112550, “Optimization of the antimicrobial peptide Bac7 by deep mutational scanning” (BMC Biology, 2022)
# System: Escherichia coli TOP10
# Assay: shrunken log2 fold change of peptide-encoding DNA abundance (4.5 h post-induction vs induction); higher = less antimicrobial activity (less host growth inhibition)
# Conditions: time post-induction: 4.5 h; library: site-saturation at positions 5, 18, 19, 20
# 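Also: peptides expressed intracellularly from a pBAD plasmid library in pooled LB shake-flask culture, induced with 0.3% L-arabinose, DNA abundance read by NGS, three biological replicates, DESeq2 with apeglm shrinkage.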
row,Sequence,shrunken log2 fold change
1,RRIRVRPPRLPRPRPRPNCMPRP,-0.222
2,RRIRARPPRLPRPRPRPICNPRP,0.176
3,RRIRCRPPRLPRPRPRPITYPRP,-0.362
4,RRIRVRPPRLPRPRPRPKMCPRP,-0.00991
5,RRIRGRPPRLPRPRPRPMCKPRP,0.886
6,RRIRRRPPRLPRPRPRPCHVPRP,-0.238
7,RRIRPRPPRLPRPRPRPIYPPRP,-0.269
8,RRIRFRPPRLPRPRPRPLDGPRP,-0.143
9,RRIRDRPPRLPRPRPRPMKHPRP,-0.245
10,RRIRHRPPRLPRPRPRPGVGPRP,0.146
11,RRIRYRPPRLPRPRPRPVQLPRP,-0.779
12,RRIRYRPPRLPRPRPRPLHKPRP,0.0382
13,RRIRFRPPRLPRPRPRPCDPPRP,-0.0886
14,RRIRARPPRLPRPRPRPAIIPRP,0.101
15,RRIRARPPRLPRPRPRPCLRPRP,0.0978
16,RRIRTRPPRLPRPRPRPTIEPRP,-0.297
17,RRIRSRPPRLPRPRPRPNKWPRP,-0.0551
18,RRIRSRPPRLPRPRPRPLNYPRP,-0.166
19,RRIRCRPPRLPRPRPRPYHYPRP,-0.364
20,RRIRDRPPRLPRPRPRPNPVPRP,-0.41
21,RRIRDRPPRLPRPRPRPCFQPRP,-0.0196
22,RRIRYRPPRLPRPRPRPDNEPRP,-0.258
23,RRIRTRPPRLPRPRPRPNKRPRP,-0.265
24,RRIRIRPPRLPRPRPRPCVEPRP,-0.0421
25,RRIRQRPPRLPRPRPRPRKVPRP,-0.00271

row,Sequence,shrunken log2 fold change
1,RRIRKRPPRLPRPRPRPMEVPRP,0.101
2,RRIRDRPPRLPRPRPRPSWIPRP,-0.454
3,RRIRERPPRLPRPRPRPRAHPRP,0.352
4,RRIRDRPPRLPRPRPRPWGWPRP,0.226
5,RRIRLRPPRLPRPRPRPQMRPRP,0.64
6,RRIRGRPPRLPRPRPRPIIHPRP,-0.261
7,RRIRSRPPRLPRPRPRPVGQPRP,0.236
8,RRIRPRPPRLPRPRPRPLHVPRP,-0.163
9,RRIRTRPPRLPRPRPRPYTYPRP,-0.489
10,RRIRQRPPRLPRPRPRPPIDPRP,0.00417
11,RRIRMRPPRLPRPRPRPDCPPRP,0.0739
12,RRIRPRPPRLPRPRPRPERWPRP,0.56
13,RRIRVRPPRLPRPRPRPPWSPRP,0.161
14,RRIRCRPPRLPRPRPRPPCFPRP,0.197
15,RRIRWRPPRLPRPRPRPWIMPRP,-0.0381
16,RRIRNRPPRLPRPRPRPRTHPRP,-0.184
17,RRIRGRPPRLPRPRPRPDYPPRP,0.121
18,RRIRSRPPRLPRPRPRPGCMPRP,0.0917
19,RRIRHRPPRLPRPRPRPLRNPRP,-0.0741
20,RRIRYRPPRLPRPRPRPPPIPRP,0.0596
21,RRIRMRPPRLPRPRPRPCPDPRP,-0.0886
22,RRIRIRPPRLPRPRPRPVRFPRP,-0.16
23,RRIRYRPPRLPRPRPRPKEEPRP,-0.0656
24,RRIRGRPPRLPRPRPRPEKTPRP,-0.0522
25,RRIRERPPRLPRPRPRPFENPRP,-0.01

row,Sequence,shrunken log2 fold change
1,RRIRERPPRLPRPRPRPIEIPRP,-0.186
2,RRIRERPPRLPRPRPRPLDRPRP,0.0551
3,RRIRSRPPRLPRPRPRPITHPRP,-0.419
4,RRIRTRPPRLPRPRPRPWPAPRP,0.61
5,RRIRIRPPRLPRPRPRPPLQPRP,0.0345
6,RRIRGRPPRLPRPRPRPFNGPRP,0.0458
7,RRIRKRPPRLPRPRPRPWDWPRP,0.504
8,RRIRQRPPRLPRPRPRPKWMPRP,-0.131
9,RRIRNRPPRLPRPRPRPNNTPRP,-0.798
10,RRIRVRPPRLPRPRPRPQRVPRP,0.0942
11,RRIRKRPPRLPRPRPRPGDGPRP,3.56
12,RRIRGRPPRLPRPRPRPLASPRP,0.894
13,RRIRIRPPRLPRPRPRPITEPRP,-1.09
14,RRIRNRPPRLPRPRPRPVFCPRP,0.36
15,RRIRVRPPRLPRPRPRPSEKPRP,0.268
16,RRIRKRPPRLPRPRPRPFDYPRP,-0.121
17,RRIRGRPPRLPRPRPRPLEKPRP,0.725
18,RRIRSRPPRLPRPRPRPLPLPRP,-0.0835
19,RRIRARPPRLPRPRPRPISQPRP,0.177
20,RRIRGRPPRLPRPRPRPIQSPRP,-0.0426
21,RRIRRRPPRLPRPRPRPNYKPRP,-0.232
22,RRIRSRPPRLPRPRPRPQRSPRP,0.316
23,RRIRMRPPRLPRPRPRPTFIPRP,-0.027
24,RRIRARPPRLPRPRPRPPFDPRP,0.922
25,RRIRGRPPRLPRPRPRPCCQPRP,0.181
